According to paper PMC11237593, “Human coronavirus OC43 nanobody neutralizes virus and protects mice from infection” (Journal of Virology, 2024):
Changes are numbered by the printed parent chain.

T1: OC43 S1B+C (S1B and S1C domains of the hCoV-OC43 spike glycoprotein) (human coronavirus OC43, UniProt P36334 321-675)
T1 construct: also called recombinant OC43 S1B+C; recombinant OC43 protein; source: Expi293F, transfected, purified from supernatant (Ni-NTA IMAC, SEC); not shown: His6, C-terminal, cleaved
T1 sequence (looked up): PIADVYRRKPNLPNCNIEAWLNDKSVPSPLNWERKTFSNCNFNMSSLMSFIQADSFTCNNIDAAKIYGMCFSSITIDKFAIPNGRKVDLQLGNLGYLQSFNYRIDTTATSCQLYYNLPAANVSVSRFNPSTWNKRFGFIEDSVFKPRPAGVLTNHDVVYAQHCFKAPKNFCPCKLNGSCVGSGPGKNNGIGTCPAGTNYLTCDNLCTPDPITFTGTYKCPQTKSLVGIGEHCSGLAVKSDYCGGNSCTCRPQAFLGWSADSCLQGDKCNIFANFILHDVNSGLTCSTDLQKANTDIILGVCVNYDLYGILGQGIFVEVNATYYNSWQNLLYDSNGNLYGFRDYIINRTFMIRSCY

B1: WNb 287 (VHH)
VHH: QLQESGGGLVQPGGSLRLSCAASGRTFSFSDYAMGWFRQAPGKEREFVASISWSGGTTYYADSVKGRFTISRDNAKNTVYLQMNSLKPEDTAVYYCAAEIDRGLLLHAVYEYDYWGQGTQVTVSS
B2: WNb 289 (VHH)
VHH: QVQLQESGGGLVQAGGSLRLSCAASGRTFSDYAMGWFRQAPGKEREFVATISWSGGTTYYADSVKGRFTISRDNAKNTVYLQMNSLKPEDTAVYYCAAVMDLGMLAADGYEYDYWGQGTQVTVSS
B3: WNb 284 (VHH)
VHH: QVQLQESGGGLVQAGGPLRLSCAASGRTFSDYFMGWFRQAPGMEREFVASISWSGGTTYYADSVKGRFTISRDNAKNTVYLQMNSLKPEDTAVYYCAAAIDYGLGLTVEYEYDYWGQGTQVTVSS
B4: WNb 278 (VHH)
VHH: B3 VHH with P17S, A75T, A98T
B5: WNb 296 (VHH)
VHH: B3 VHH with P17S, M43K, K76N, E89V, A99V, I100A, V108T, E109S
B6: WNb 292 (VHH)
VHH: B3 VHH with G16A, P17S, F33A, M43K, S50A, A99N, I100T, T107V, V108R, E109A
B7: WNb 280 (VHH)
VHH: QVQLQESGGGLVQAGGSLRLSCAASGRTFSNYFMGWFRQAPGKEREFVAAISWSGGSTYYTDSVKGRFTISRDNAKNTVYLQMNSLKPEDTAVYYCAGGLDMGWSRVNLGEYDYWGQGTQVTVSS
B8: WNb 279 (VHH)
VHH: B7 VHH with A14P, N31D, S52T, N108A
B9: WNb 299 (VHH)
VHH: QVQLQESGGGWVQPGGSLRLSCAASGFTFSNYAMGWFRQAPGKEREFVATISWSGGTTVYADSVKGRFTISRDNAKNTVYLQMNSLKPEDTAVYYCAAASDYGMVQMSDYEYDYWGQGTQVTVSS
B10: WNb 281 (VHH)
VHH: QVQLQESGGGLVQAGGSLRLSCAASGRTFSDYFMGWFRQAPGKEREFVTAISWSGGSTYYADSVKGRFTISRDNAKNTVFLQMNSLKPEDTAVYYCAAALDEGWARVAGPEYDYWGQGTQVTVSS
B11: WNb 288 (VHH)
VHH: B10 VHH with T49A, F68S, F80Y, A99D, L100H, E102R, V107L, A108R, G109L, P110A
B12: WNb 285 (VHH)
VHH: QVQLQESGGGLVQAGGSLRLSCAASGRTFSDYAMGWFRQAPGKEREFVAAISWSGGTTYYADSVKGRFTISRDNAKNTVYLQMNSLTPEDTAVYYCAADYDYGWGRVRVSEYDYWGQGTQVTVSS
B13: WNb 291 (VHH)
VHH: B12 VHH with D31N, A33F, T87K, D99N, Y100T, W104M, R106F, V109A, S110Y
B14: WNb 293 (VHH)
VHH: QVQLQESGGGSVQAGDSLRLSCVASGRTFSSYALGWFRRAPGKEREFVAAISWSGGTTYYADSVKGRFTISRDNAKNTVYLQMNSLKPEDTAVYYCAALWDGGSWYPEGLSDFGSWGQGTQVTVSS
B15: WNb 294 (VHH)
VHH: B14 VHH with S11L, D16G, V23A, L34M, R39Q, A61G, L99Q, W100G, Y106F, S111A
B16: WNb 282 (VHH)
VHH: QVQLQESGGGLVQAGDSLRLSCAASGRTFSDYFMGWFRQAPGKEREFVASISWSGGTTYYADSVKGRFTISRDNAKNTVYLQMNRVKSEDTAVYYCAAARDMGWGRTGENEYDYWGQGTQVTVSS
B17: WNb 276 (VHH)
VHH: QVQLQESGGGLVQSGGSLRLSCAASGFTFSNYGMMWVRQAPGKGVEWVSRIDSDGTITLYKDSVKGRFTISRDNAKNMLYLQMESLKPEDTALYYCIKVMDWVPGRAPPFRGQGTQVTVSS
B18: WNb 286 (VHH)
VHH: QVQLQESGGGLVQAGGSLRLSCAASGRTFSSYAMGWFHQAPGKEREFVASISWSGGTTYYADSVKGRFTISRDNAKNTVYLQMNSLKPEDTAVYYCAAAVDYGLGLYRVGEYDSWGQGTQVTVSS
B19: WNb 297 (VHH)
VHH: QVQLQESGGGSVQAGGSLRLSCAASGRTFSDYAMGWFRQAPGKEREFVASISWSGGTTYYADSVKGRFTISRDNAKNTVYLQMNSLKPEDTAVYYCAADTDYGMGLITVPDFGSWGQGTQVTVSS
B20: WNb 298 (VHH)
VHH: B19 VHH with S11L, A14P, A33F, D99E, T100I, M104L, I107H, T108A, V109A, P110A
B21: WNbFc 293 (Fc fusion)
chain: B14 VHH
notes: also called WNb 293-Fc; WNb 293-Fc fusion; source: Expi293F, transfected, purified from supernatant (MabSelect Prism A, SEC)
B22: WNbFc 294 (Fc fusion)
chain: B14 VHH with S11L, D16G, V23A, L34M, R39Q, A61G, L99Q, W100G, Y106F, S111A
notes: source: Expi293F, transfected, purified from supernatant (MabSelect Prism A, SEC)

What follows are binders tested against T1, OC43 S1B+C (S1B and S1C domains of the …) (assay: BLI). Conditions: both partners purified.

Binder	Kd [nM]	koff [s⁻¹]	kon [M⁻¹ s⁻¹]
B1	11.2	0.000933	84000
B2	4.73	0.000629	132000
B3	4.01	0.000363	91000
B4	5.93	0.0004	68000
B5	15.3	0.000786	51000
B6	15.6	0.00116	75000
B7	22.9	0.00161	70000
B8	149	0.0086	58000
B9	9.9	0.00103	104000
B10	1.55	0.000183	118000
B11	19.6	0.00124	64000
B12	4.23	0.000447	106000
B13	11.7	0.000527	45000
B14	4.6	0.000417	91000
B15	26	0.00106	41000
B16	2.46	0.000195	79000
B17	6.46	0.000518	82000
B18	58.8	0.00245	42000
B19	21.4	0.00199	93000
B20	8.94	0.000987	111000

The binders below were run against T1, OC43 S1B+C (S1B and S1C domains of the …) (assay: not given). Conditions: both partners purified.

Binder	Kd [nM]	koff [s⁻¹]	kon [M⁻¹ s⁻¹]
B21	7.51	0.000758	101000
B22	36.9	0.00164	45000
